Measurements taken from the nanobody polyreactivity screen of Harvey et al. (2022).

assay: yeast display, Sf9 membrane polyspecificity reagent, FACS + sequencing; frameworks hold sequencing errors
In short: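 Synthetic nanobody libraries on Saccharomyces cerevisiae BJ5465 were galactose-induced for 36–48 hours, stained 1 hour at 4 °C with 10% biotinylated, detergent-solubilized Sf9 membrane reagent and enriched on streptavidin microbeads. FACS then separated cells into low and high (top ~1%) gates by anti-HA (expression) and streptavidin (reagent binding) fluorescence. Genes were colony-PCR amplified, MiSeq 2 × 250 sequenced and CDR-length filtered. A clone's polyreactivity label is that of its gate of origin.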

| Sequence | polyreactivity (PSR sort gate) |
| --- | --- |
| QVQLVESGGGLVQAGGSLRLSCAASGYTGVYALGWYRQAPGKERELVADITSGGNTDYADSVKGRFTISRDNAKNTVYLQMNSLKPEDTAVYYCATPYRRLNTWIYDYWGQGTQVTVSS | high polyreactivity |
| QVQLVESGGGLVQAGGSLRLSCAASGYTIFFNVMGGYRQAPGKERELVAAISYSGGSTNYADSVKGRFTISRDNAKNTVYLQMNSLKPEDTAVYYCNTVRSPPGHVYWGEGTQVTVSS | low polyreactivity |
| QVQLVESGGGLVQAGGSLRLSCAASGYTLADYAMGWYRQAPGKERELVAAISSGGITSYADSVKGRFTISRDNAKNTVYLQMNSLKPEDTAVYYCNAAIVGFTRAYQYDYWGQGTQVTVSS | high polyreactivity |
| QVQLVESGGGLVQAGGSLRLSCAASGYTLDNYAMGWYRQAPGKERELVAGITFSGGSTFYADSVKGRFTISRDNAKNTVYLQMNSLKPEDTAVYYCAADAEFQADHKYGYWGQGTQVTVSS | low polyreactivity |
| QVQLVESGGGLVQAGGSLRLSCAASGYTLFRNAMGWYRQAPGKERELVAAISRSGARTYYADSVKGRFTISRDNAKTTVYLQMNSLKPDYTAVYYCAAVIKWTKDDYWGQGTQVTVSS | high polyreactivity |
| QVQLVESGGGLVQAGGSLRLSCAASGYTLKYYAMGWYRQAPGKERELVAVISRGGSTYYADSVKGRFTISRDNAKNTVDLQMNSLKPEDTAVYYCAKRPTQGYYPYGYWGQGTQVTVSS | high polyreactivity |
| QVQLVESGGGLVQAGGSLRLSCAASGYTLQTYAMGWYRQAPGKERELVAAISYRGGRTYYADSVKGRFTISRDNAKNTVYLQMNSLKPEDTAVYYCATRVRYKDYPYSIRYYWGQGTQVTVSS | high polyreactivity |
| QVQLVESGGGLVQAGGSLRLSCAASGYTLRIYAMGWYRQAPGKERELVAAISRGGGTTRYADSVKGRFTISRDNAKNTVYLQMNSLKPEDTAVYYCNKDVYGYSRTGPRGYDYWGQGTQVTVSS | high polyreactivity |
| QVQLVESGGGLVQAGGSLRLSCAASGYTLSLNAMGWYRQAPGKERELVAVISWNGGRTRYADSVKGRFTISRDNAKNTVYLQMNSLKPEDTAVYYCNADIYARTYAGYYQWRPYDYWGQGTQVTVSS | high polyreactivity |
| QVQLVESGGGLVQAGGSLRLSCAASGYTLYLNAMGWYSQAPGKERELVARISGGGSTNYADYVKGRFTMSRDNAKNTVYLQMNSLKPEDTAVYYCAATIFAYGYRSFKLDYWGQGTQVTVSS | low polyreactivity |
| QVQLVESGGGLVQAGGSLRLSCAASGYTRFYAMGWYRQAPGKERELVAAISSSGGTTYYADSVKGRFTISRDNAKNTVYLQMNSLKPEDTAVYYCAKYVSYSRTLYDYWGQGTQVTVSS | high polyreactivity |
| QVQLVESGGGLVQAGGSLRLSCAASGYTSRSNAMGWYRQAPGKERELVAAIRGGGNTKYADSVKGRFTISRDTAKNTVYLQMNSLKPEDTAVYYCAVVTGSFRTRYTYYYWGLGTQVTVSS | high polyreactivity |
| QVQLVESGGGLVQAGGSLRLSCAASGYTSRTNAMGWYIQAPGKERELVAAITWRGTRTYYADSVKGRFTISRDNAKNTVYLQMNSLKPEDTAVYYCATQWIRKYDYWGQGTQVTVSS | high polyreactivity |
| QVQLVESGGGLVQAGGSLRLSCAASGYTSYVYAMGWYRQAPGKERELVAAISLRTASTYYADSVKGRFTISRDTAQKTVYVQMNSLKPEDTAVYYCARGRETYRYSYRLNYWGQGTQVTVSS | high polyreactivity |
| QVQLVESGGGLVQAGGSLRLSCAASGYTVAFYDMGWYRQAPRKERELVAAISASGGSTYYADSVKGRFTISRDNAKNTVYLQMNSLKPEDTAVYYCAARSKYRGDMDYWGQGTQVTVSS | high polyreactivity |
| QVQLVESGGGLVQAGGSLRLSCAASGYTYEYYAMGWYRQAPGKERELVAAISWSGGDTYYADSVKGRFTISRDNAKNTVYIQMNSLKPEDTAVYYCNAVLYTYYYYANWYGAYDYWGQGTQVTVCS | low polyreactivity |
| QVQLVESGGGLVQAGGSLRLSCAASGYTYGYNAMGSYRQAPGKERELVAAITKNGGSTYYADSVKGRFTISRDNAKNTVYLQMNSLKPEDTAVYYCAARIYYSRTFGYYYWGQGTQVTVSS | high polyreactivity |
| QVQLVESGGGLVQAGGSLRLSCAASISSINAMGWYRQAPGKERELVAAIRWSGSSTYYADSVKGRFTISRDNAKNTVYLQMNSLKPEDTAVYYCAARYVRVGYDYWGQGTQVTVSS | high polyreactivity |
| QVQLVESGGGLVQAGGSLRLSCAASRIIFDDNAMGWYRQAPGKEMELVAAISRRGGSTYYADSVKGRFTISRDNAKNTVYLQMNSLKPEDTAVYYCAATTRTSSLYNYWGQGTQVTVSS | high polyreactivity |
| QVQLVESGGGLVQAGGSLRLSCAASRIIFYGNAMGWYRQAHGKERELVAAIDQSGDSTYYADSVKGRFTISRDNAKNTVYLQMNSLKPEDTAVYYCAADSLYLAYEYWGQGTQVTVSS | high polyreactivity |
| QVQLVESGGGLVQAGGSLRLSCAASRITSYPYAMGWSRQGPGKERELVAAISKRGGGTYYADSVKGPFTISRDNAMNTVYLQLNSLKPVDTAVYYCAKSWGPTTYKIVPAYGYWGQGTQVTVSS | high polyreactivity |

| Sequence | polyreactivity (PSR sort gate) |
| --- | --- |
| QVQLVESGGGLVQAGGSLRLSCAASRRIIGAYAMGWDRQAPGKEWELVARISWSGGTTYYADSVKGRFPISRDNAKNTVYLQMNSLKPEDTAVYYCAARYSYYVTGGISKYDYWGQGTQVTVSS | low polyreactivity |
| QVQLVESGGGLVQAGGSLRLSCAASRRIYYWYVMGWYRQAPGKERELVASISWSGGSTYYADSVKGRFTISRDNAKNTVYLQMNSLKPEDTAVYYCNAGSVYTVSLPGHPYDYWGQGTQVTVSS | low polyreactivity |
| QVQLVESGGGLVQAGGSLRLSCAASRRTFWNYAMGWYRQAPGKESEFVAVIRFSDGSTYYADSVKGRFTISRDNAKTTVYLQMHSLKPEDTPVYYCAAKGPRRWGSGFDYWGQRTQVTVSS | low polyreactivity |
| QVQLVESGGGLVQAGGSLRLSCAASRSIFPLYAMGWYRQAPGKERELVAAITYSGGRTYYADSVKGRFTISRDNAKNTVYLQMISLKPEDTAVYYCNTRQRVIDDYWGQGTQVTVSS | high polyreactivity |
| QVQLVESGGGLVQAGGSLRLSCAASRSIFSQYSRGCYRQAPGKERELVATITWRGGSNTNYADSVKGRFTISRDNAKNTVYLQMNSLKPEDTAVYYCNAAFPYHYRFDYWGQGTQVTVSS | low polyreactivity |
| QVQLVESGGGLVQAGGSLRLSCAASRSTFEIYAMGWYRPAPGKERELFAAISSGGSTNYADSVKGRFTISRDNAKNTVYLQMKSLITEDTAVYYCVYAIQFYYWGQGTQVTVSS | low polyreactivity |
| QVQLVESGGGLVQAGGSLRLSCAASRSTFVLYDMGWYRPAPGKERELVAAISRSGDSTYYADSVKGRYTISRDNAKNTVYLQMNSLKPEDTAVYYCAAKRRISTGMDYWGQGTQGTVSS | high polyreactivity |
| QVQLVESGGGLVQAGGSLRLSCAASRSTIPSYAMGWSRQAPGKERELVASITYSDGTTRYADSVKGRFTISRDNAKNTVYLQMNSLKPEDTAVYYCNAVYYRDGMDYWGQGTQVTVSS | low polyreactivity |
| QVQLVESGGGLVQAGGSLRLSCAASVFTFLYYAMGWYRQAPGKERELVAAISSTGGTTYYADSVKGRFTISRDNAKNTVYLQMNSLKPEDTAVYYCAADQGVYRTYWFDYWGQGTQVTVSS | high polyreactivity |
| QVQLVESGGGLVQAGGSLRLSCAASVFTFTVNTMGWYRQAPGKERELVAANSNTGSTKYADSVKGRFTISRDKAKNTLYLQMNSLKPEDTAVFYCAAEPGYYSRPDYRVYRVYYWGQGTQVTVSS | high polyreactivity |
| QVQLVESGGGLVQAGGSLRLSCAASVFTFYLYAMGWDRQAPGKERELVADITKRGGSTDYADSVKGRFTISRDNAKNTVYLQMNSLKPEDTAVYYCAARGPTFGVDYGYWGQGTQVTVSS | high polyreactivity |
| QVQLVESGGGLVQAGGSLRLSCAASVIIFQVYAMGWYRQAAGKERELVAAITRRGASTYYADSVKGRFTISRDNPKNTDYLQMNSLKPEETAVYYFNARAYYRLYKSKLGYWGQGTQVTVSS | high polyreactivity |
| QVQLVESGGGLVQAGGSLRLSCAASVIIFRQYAMGWSRQAPGKERELVAAISGSGGTTYYADSVKGRFTISRDNAKNTVYLQMNSLKPEDTAVYYCAADSSSRGRLDYWGQGTQVTVSS | high polyreactivity |
| QVQLVESGGGLVQAGGSLRLSCAASVITLFGYTMGWYRQAPGKERELVAAIRRRGVSTYYADSVKGRFTISRDNAKNTVYLQMNSLKPEDTAVYYCAKSLKPYTDYDYWGQGTQVTVSS | high polyreactivity |
| QVQLVESGGGLVQAGGSLRLSCAASVNTFYGYDMGWYRQAPGKEWELVASITLSGDSTYYADSVKGRFTISRDNEKNTVYLQMNSLKPEDTAVYYCAGVYTYPLGYYHYTYAYWGQGTQVTVSS | low polyreactivity |
| QVQLVESGGGLVQAGGSLRLSCAASVRIFGVYAMGWYRQAPGKERELVAAITSGGSTTYADSVKGRFTISRDNAKNTVYLQMNSLKPEDTAVYYCNKEPQPFFLYGYWGQGTQVTVSS | low polyreactivity |
| QVQLVESGGGLVQAGGSLRLSCAASVRIFPHKAMGWYIQAPGKERELVAAISSNGGSTYYADSVKGRFTISRDNAKNTVYLQMNSLKPEDTAVYYCAKYRYFAGDGDYWGQGTQVTVSS | low polyreactivity |
| QVQLVESGGGLVQAGGSLRLSCAASVRIFPTNAMGWYRQAPGKEREFVAAITWLGGSTYYADSVKGRFTISRDNAKNTVYLQMNRLKPEDTAVYYCAATGHIVFFRAYDYGYWGQGTQVTVSS | low polyreactivity |
| QVQLVESGGGLVQAGGSLRLSCAASVRIFRFYVMGWYRQAPGKERELVAAISKRGASTSYADSVKGRFTISRDNAKNTVYLQMNSLKPEDTAVYYCAASAKRGEMGYWGQGTQVTVSS | high polyreactivity |
| QVQLVESGGGLVQAGGSLRLSCAASVRIFSINAMGWYRQAPGKERELVAAINSGGSTHYADSVKGRFTISRDNAKNTVYLQMNSLKPEDTAGYYCAARKTVSYFRVRTFDYWGQGTQVTVSS | low polyreactivity |
